Data: publication PMC3793302 (Developmental cell, 2004)

Biological target: the molecule itself
Assay: cross-linking

B1: C-TSK-Myc-His expressed in Xenopus embryos (natural protein, chick, UniProt Q65Z91 20-369, looked up)
chain: KTCFPGCHCEVESFGLFDSFSLTKVDCSGIGSHIVPVPIPLDTSYLDLSSNKLETINESMLTGPGYTTLVSLDLSYNNIAKISSTTFSRLRYLESLDLSHNSLEVLPEDCFSSSPLGDIDLSNNKLLDIALDVFASKGQGKPLNVDLSNNMLSKITRNHEKSIPNIQNLNLSGNRLTSVPNLQGIPLRYLNLDGNPLAKIEKGDFKGLKGLIHLSLSGLHDFRELSPYSFKELPALQVLDLSNNPNLRSLTAEVIFGLNSIQELNLSGTGVSSLPKTVLKYLPSLKSITLRKNIQCFKTIKEGQYHRQIGLTKLGLGAEELLWCKTPCPRPVCRCRDKPLQSAPQNLPTP
  stoichiometry N: 2
